Reference: patent US20140357845A1 (published 2014)

Legend:
[1] = molecular target: H3-mini2-cl9 + 10 + 11-tri (influenza A virus H3N2); assay: FACS
[2] = molecular target: H3-mini2-cl9 + 10 + 11-GCN4 (influenza A virus H3N2); assay: FACS
H3-mini2-cl9 + 13 = H3-mini2-cl9 + 13 (influenza A virus H3N2, UniProt Q38SQ8 18-566); assay: FACS
[3] = molecular target: H3-mini2-cl9 + 10 + 11 + 13 (influenza A virus H3N2, UniProt Q38SQ8 18-566); assay: FACS
[4] = molecular target: H3-mini2-cl9 + 10 + 11 + 13-GCN4 (influenza A virus H3N2); assay: FACS
[5] = molecular target: H3-mini2-cl9 + 10 + 11 + 13-tri (influenza A virus H3N2); assay: FACS
[6] = molecular target: HA of influenza virus A/Brisbane/10/2007 (H3) (influenza A virus H3); assay: cell-based or functional assay
[7] = molecular target: HA of influenza virus A/WF/MPA 892/06 (H4) (influenza A virus H4); assay: cell-based or functional assay
[8] = molecular target: HA of influenza virus A/Chick/Germany/N/49 (H10) (influenza A virus H10); assay: cell-based or functional assay
[9] = molecular target: HA of influenza virus A/Env/MPU3156/05 (H2) (influenza A virus H2); assay: cell-based or functional assay
[10] = molecular target: HA of influenza virus A/EW/MPF461/07 (H5) (influenza A virus H5); assay: cell-based or functional assay
[11] = molecular target: HA of influenza virus A/EW/MPD411/07 (H6) (influenza A virus H6); assay: cell-based or functional assay
[12] = molecular target: HA of influenza virus A/EW/MPH571/08 (H8) (influenza A virus H8); assay: cell-based or functional assay
[13] = molecular target: HA of influenza virus A/Hong Kong/1073/99 (H9) (influenza A virus H9); assay: cell-based or functional assay
[14] = molecular target: HA of influenza virus A/Ck/HK/SSP176/09 (H9) (influenza A virus H9); assay: cell-based or functional assay
[15] = molecular target: HA of influenza virus A/Johannesburg/33/94 (H3) (influenza A virus H3); assay: cell-based or functional assay
[16] = molecular target: HA of influenza virus A/Panama/2007/1999 (H3) (influenza A virus H3); assay: cell-based or functional assay
[17] = molecular target: HA of influenza virus A/Hiroshima/52/2005 (H3) (influenza A virus H3); assay: cell-based or functional assay

B1: CR9114 (antibody, V domains shown)
VH: QVQLVQSGAEVKKPGSSVKVSCKSSGGTSNNYAISWVRQAPGQGLDWMGGISPIFGSTAYAQKFQGRVTISADIFSNTAYMELNSLTSEDTAVYFCARHGNYYYYSGMDVWGQGTTVTVSS
VL: SYVLTQPPAVSGTPGQRVTISCSGSDSNIGRRSVNWYQQFPGTAPKLLIYSNDQRPSVVPDRFSGSKSGTSASLAISGLQSEDEAEYYCAAWDDSLKGAVFGGGTQLTVL
B1: no binding (tested: 5 microgram/ml) [1]; no binding (tested: 5 microgram/ml) [2]; no binding (tested: 5 microgram/ml) (H3-mini2-cl9 + 13). B1: no binding (tested: 5 microgram/ml) [3]; no binding (tested: 5 microgram/ml) [4]; no binding (tested: 5 microgram/ml) [5]. For the same binder, the “geomean IC50, virus neutralization assay (VNA)” value (“geomean IC50” below) [6] was 5.6 µg/mL, the “geomean IC50” value [7] was 0.8 µg/mL and the “geomean IC50” value [8] was 15.7 µg/mL. The “geomean IC50” value [9] was 8.8 µg/mL, the “geomean IC50” value [10] was 10.5 µg/mL and the “geomean IC50” value [11] was 10.5 µg/mL. The “geomean IC50” value [12] was 8.8 µg/mL, the “geomean IC50” value [13] was 4.4 µg/mL and the “geomean IC50” value [14] was 6.3 µg/mL. The “geomean IC50” value [15] was 21.9 µg/mL, the “geomean IC50” value [16] was 39.9 µg/mL and the “geomean IC50” value [17] was 12.5 µg/mL.
